This note sets out measurements from US20210340238A1, “TGFß1 INHIBITORS AND USE THEREOF” (Scholar Rock, Inc., priority 2018, published 2021).

Experiment [1] deals with Matrix-associated proTGFβ1 (hLTBP1-proTGFβ1 and hLTBP3-proTGFβ1 complexes). The experiment in a line: Octet (BLI); cell average KD over ECM average KD. (In general: BLI is a label-free optical method that tracks binding on a fibre tip over time.)
Experiment [2] shares this target. As to the kind of experiment: MSD-SET; cell average KD over ECM average KD.
Experiment [3] shares this target. As to the kind of experiment: MSD-SET; IgG4 from mammalian cells; mean of hLTBP1 and hLTBP3.
Experiment [4] has as its target Cell-associated proTGFβ1 (hGARP-proTGFβ1 and hLRRC33-proTGFβ1 complexes). As to the kind of experiment: Octet (BLI); IgG1 from yeast; mean of hGARP and hLRRC33.
Experiment [5] concerns the target Matrix-associated proTGFβ1 (hLTBP1-proTGFβ1 and hLTBP3-proTGFβ1 complexes). As to the kind of experiment: Octet (BLI); IgG1 from yeast; mean of hLTBP1 and hLTBP3.
In experiment [6] the target is Cell-associated proTGFβ1 (hGARP-proTGFβ1 and hLRRC33-proTGFβ1 complexes). The experiment in a line: MSD-SET; IgG4 from mammalian cells; mean of hGARP and hLRRC33.

Residue numbers refer to the chain shown, from its start.

B1: Ab19 (antibody, V domains shown)
VH: QVQLVESGGGVVQPGRSLRLSCAASGFTFSSFAMTWVRQAPGKGLEWVSAISGSGAATYFADSVKGRFTISRDNSKNTLYLQMNSLRAEDTAVYYCARVSSGHWDFDEWGQGTLVTVSS
VL: DIQLTQSPSSLSASVGDRVTITCRASQSISSYLNWYQQKPGKAPKLLIYAASNLQSGVPSRFSGSGSGTDFTLTISSLQPEDFATYYCQQTYTVPLTFGGGTKVEIK
As to B1, the G/D (fold bias) was determined as 34.5 fold in experiment [1] and 1.68 fold in experiment [2]. The ECM AVRG (average KD) in experiment [3] was 2.83 nM; in experiment [5], 0.172 nM. Further, the Cell AVRG (average KD) in experiment [4] worked out at 5.95 nM; in experiment [6], 4.75 nM.

B2: Ab14 (antibody, IgG1, V domains shown)
VH: EVQLLESGGGLVQPGGSLRLSCAASGFTFSAYAMTWVRQAPGKGLEWVSAISGTGGSTYYADSVKGRFTISRDNSKNTLYLQMNSLRAEDTAVYYCARVSSGHWDFDYWGQGTLVTVSS
VL: B1 VL with L4M, N53S, T91V, T93D, V94P
B2 came in with a G/D (fold bias) in experiment [1] of 17.4 fold. Also, the Cell AVRG (average KD) in experiment [4] worked out at 5.92 nM. In experiment [5], the ECM AVRG (average KD) stood at 0.341 nM.

B3: Ab13 (antibody, IgG1, V domains shown)
VH: B2 VH with S30A, A31D, G53S, T54F, G55A, G56S, S57A, T58I
VL: B1 VL with L4M, N53S, T91V, T93D, V94P
In turn, B3 registered a G/D (fold bias) in experiment [1] of 21.7 fold. In addition, the Cell AVRG (average KD) in experiment [4] is 5.7 nM. Moreover, the ECM AVRG (average KD) in experiment [5] came to 0.263 nM.

B4: Ab17 (antibody, IgG1, V domains shown)
VH: B1 VH with Q1E, V5L, R16G, E108Y
VL: B1 VL
For B4, the G/D (fold bias) in experiment [1] was 24.3 fold. In addition, the Cell AVRG (average KD) in experiment [4] amounted to 4.64 nM. In experiment [5], this molecule showed an ECM AVRG (average KD) of 0.191 nM.

B5: Ab15 (antibody, IgG1, V domains shown)
VH: B2 VH with L5V, L11V, G16R, A31D, T35V, T54S, G56F, S57T
VL: B1 VL
With B5, the G/D (fold bias) in experiment [1] turned out to be 24.2 fold. The Cell AVRG (average KD) in experiment [4] worked out at 3.86 nM. Further, the ECM AVRG (average KD) in experiment [5] was 0.159 nM.

B6: Ab12 (antibody, V domains shown)
VH: B1 VH with S31D, F32Y, T35V, A56F, A57T, F60Y, E108Y
VL: B1 VL
Regarding B6, the figures for the G/D (fold bias) in experiment [1] and in experiment [2] were 22.9 fold and 3.4 fold, respectively. The ECM AVRG (average KD) in experiment [3] was determined as 0.72 nM; in experiment [5] it was 0.17 nM. Also, the Cell AVRG (average KD) in experiment [4] was found to be 3.89 nM; in experiment [6], 2.45 nM.

B7: Ab18 (antibody, IgG1, V domains shown)
VH: B1 VH with S31D, F32Y, T35V, R98T, E108Y
VL: B1 VL
Regarding B7, the G/D (fold bias) in experiment [1] came out at 22 fold. The Cell AVRG (average KD) in experiment [4] came out at 6.26 nM. The molecule also had an ECM AVRG (average KD) in experiment [5] of 0.284 nM.

B8: Ab11 (antibody, V domains shown)
VH: B2 VH with S30R, A31N, T35S, A50S, T54S, S57A
VL: B1 VL
B8: the results for the G/D (fold bias) in experiment [1] and in experiment [2] were 4.35 fold and 3.87 fold, respectively. For the same molecule, the ECM AVRG (average KD) in experiment [3] was 1.2 nM; in experiment [5], 0.161 nM. Moreover, the Cell AVRG (average KD) worked out at 0.699 nM in experiment [4] and 4.65 nM in experiment [6].

B9: Ab20 (antibody, V domains shown)
VH: B2 VH with T54S, S57V, F106Y
VL: B1 VL
Turning to B9, the values for the G/D (fold bias) in experiment [1] and in experiment [2] were 4.42 fold and 6.75 fold, respectively. Also, the ECM AVRG (average KD) in experiment [3] is 0.2 nM; in experiment [5], 0.162 nM. For the same molecule, the Cell AVRG (average KD) in experiment [4] was 0.715 nM; in experiment [6] it was 1.35 nM.

B10: Ab2 (antibody, V domains shown)
VH: B2 VH with S30A, A31D, T54S, G56A, S57A, Y60F
VL: B1 VL
For the molecule B10, the figures for the ECM AVRG (average KD) in experiment [3] and in experiment [5] were 0.266 nM and 0.157 nM, respectively. Also, the Cell AVRG (average KD) is 0.643 nM in experiment [4] and 2.3 nM in experiment [6].

B11: Ab16 (antibody, IgG1, V domains shown)
VH: B2 VH with A31N, T35S, T54S, G56F, S57T
VL: B1 VL
In experiment [1], B11 displayed a G/D (fold bias) of 15.3 fold. Further, the Cell AVRG (average KD) in experiment [4] was found to be 2.4 nM. The ECM AVRG (average KD) in experiment [5] worked out at 0.157 nM.
